Key:
Test in all cases: ITC; ligand (peptide or CAR-1 fragment, 0.5 mM) injected into CGH-1_(248-420) or mutant (0.05 mM) in the cell; 20 °C; Buffer B (20 mM Tris-HCl pH 7.5, 150 mM NaCl); one-binding-site model
Settings in all cases: both partners purified
[1] = biological target: T1, CGH-1_(248–420) K277A (C. elegans, UniProt Q95YF3 248-420, K277A)
T1 construct: Mutant of m1 made with the MutanBEST kit; source: E. coli Gold (DE3), purified (Ni-chelating resin, SEC Superdex 75)
T1 sequence (looked up): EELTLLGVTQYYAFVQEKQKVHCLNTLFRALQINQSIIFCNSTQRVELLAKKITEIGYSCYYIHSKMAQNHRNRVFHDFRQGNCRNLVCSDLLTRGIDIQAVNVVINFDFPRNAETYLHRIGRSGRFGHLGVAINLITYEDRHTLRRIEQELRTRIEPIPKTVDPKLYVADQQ

[2] = biological target: T2, CGH-1_(248–420) E396A (C. elegans, UniProt Q95YF3 248-420, E396A)
T2 construct: Mutant of m1 made with the MutanBEST kit; source: E. coli Gold (DE3), purified (Ni-chelating resin, SEC Superdex 75)
T2 sequence (looked up): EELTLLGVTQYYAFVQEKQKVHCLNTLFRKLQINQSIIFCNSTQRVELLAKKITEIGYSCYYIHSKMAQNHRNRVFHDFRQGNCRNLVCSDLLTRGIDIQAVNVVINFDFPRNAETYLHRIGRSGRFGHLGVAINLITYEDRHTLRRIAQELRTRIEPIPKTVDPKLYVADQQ

[3] = biological target: T3, CGH-1_(248–420) F261A (C. elegans, UniProt Q95YF3 248-420, F261A)
T3 construct: Mutant of m1 made with the MutanBEST kit; source: E. coli Gold (DE3), purified (Ni-chelating resin, SEC Superdex 75)
T3 sequence (looked up): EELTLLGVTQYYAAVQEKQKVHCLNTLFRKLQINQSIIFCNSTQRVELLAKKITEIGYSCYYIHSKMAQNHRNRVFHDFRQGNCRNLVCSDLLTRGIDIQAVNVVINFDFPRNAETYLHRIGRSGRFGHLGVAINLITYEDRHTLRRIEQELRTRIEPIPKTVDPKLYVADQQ

[4] = biological target: T4, CGH-1_(248–420) H269A (C. elegans, UniProt Q95YF3 248-420, H269A)
T4 construct: Mutant of m1 made with the MutanBEST kit; source: E. coli Gold (DE3), purified (Ni-chelating resin, SEC Superdex 75)
T4 sequence (looked up): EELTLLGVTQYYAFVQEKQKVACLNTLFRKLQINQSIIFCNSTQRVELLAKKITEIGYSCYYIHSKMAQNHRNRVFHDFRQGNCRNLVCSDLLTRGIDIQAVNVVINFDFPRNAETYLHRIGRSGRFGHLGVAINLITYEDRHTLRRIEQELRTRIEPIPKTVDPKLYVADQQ

B1: PATR-1 peptide (CePATR-1_(30–67)) (peptide)
peptide: SDEDHNIFDDEFDAANDETFGGGLDNIGENAELENYAT
notes: PATR-1 (Pat1 ortholog), C. elegans, residues 30-67; Printed with free NH2 and COOH ends; also called PATR1_30-67^WT; CePATR-1 peptide; source: synthetic peptide (GL Biochem, Shanghai)
- Kd [1]: 4.43 ± 0.42 µM
- dH [1]: -17.2 ± 0.57 kcal/mol
- stoichiometry N [1]: 1.07
- Kd [2]: 2.96 ± 0.34 µM
- dH [2]: -16.3 ± 0.47 kcal/mol
- stoichiometry N [2]: 0.93
- Kd [3]: 6.62 ± 1.05 µM
- dH [3]: -13 ± 0.7 kcal/mol
- stoichiometry N [3]: 0.76
- Kd [4]: 2.67 ± 0.44 µM
- dH [4]: -15.4 ± 0.67 kcal/mol
- stoichiometry N [4]: 0.94
